Source: patent publication US20190153112A1 (IMMUTEP S A S, published 2019)
pEC50, pKd: −log10 of the molar value.

Tests used:
[1] = molecular target: human LAG-3 protein (Lymphocyte activation gene-3) on the cell surface (human) (UniProt P18627); assay: flow cytometry on CD8+ cells of SEB-stimulated PBMCs (Donor 1); antibody 541 ng/ml
[2] = molecular target: human LAG-3 protein (Lymphocyte activation gene-3) on the cell surface (human) (UniProt P18627); assay: flow cytometry on LAG-3-transfected CHO cells; antibody 0.4 ng/ml
[3] = molecular target: human LAG-3 protein (Lymphocyte activation gene-3) on the cell surface (human) (UniProt P18627); assay: flow cytometry on CD8+ cells of SEB-stimulated PBMCs (Donor 1); antibody 10000 ng/ml
[4] = molecular target: human LAG-3 protein (Lymphocyte activation gene-3) on the cell surface (human) (UniProt P18627); assay: flow cytometry on CD8+ cells of SEB-stimulated PBMCs (Donor 1); antibody 0 ng/ml (no-antibody background)
[5] = molecular target: human LAG-3 protein (Lymphocyte activation gene-3) on the cell surface (human) (UniProt P18627); assay: flow cytometry on CD4+ cells of SEB-stimulated PBMCs (Donor 1); antibody 541 ng/ml
[6] = molecular target: human LAG-3 protein (Lymphocyte activation gene-3) on the cell surface (human) (UniProt P18627); assay: flow cytometry on CD8+ cells of SEB-stimulated PBMCs (Donor 1); antibody 1.6 ng/ml
[7] = molecular target: human LAG-3 protein (Lymphocyte activation gene-3) on the cell surface (human) (UniProt P18627); assay: flow cytometry on CD4+ cells of SEB-stimulated PBMCs (Donor 1); antibody 2326 ng/ml
[8] = molecular target: human LAG-3 protein (Lymphocyte activation gene-3) on the cell surface (human) (UniProt P18627); assay: flow cytometry on LAG-3-transfected CHO cells; antibody 10000 ng/ml
[9] = molecular target: human LAG-3 protein (Lymphocyte activation gene-3) on the cell surface (human) (UniProt P18627); assay: flow cytometry on CD8+ cells of SEB-stimulated PBMCs (Donor 1); antibody 7 ng/ml
[10] = molecular target: human LAG-3 protein (Lymphocyte activation gene-3) on the cell surface (human) (UniProt P18627); assay: flow cytometry on CD8+ cells of SEB-stimulated PBMCs (Donor 1); antibody 0.4 ng/ml
[11] = molecular target: IMP321 (recombinant soluble human LAG-3Ig fusion protein) (human) (UniProt P18627); assay: Biacore, 17B4 antibody on the chip and LAG-3Ig in the running buffer
[12] = molecular target: human LAG-3 protein (Lymphocyte activation gene-3) on the cell surface (human) (UniProt P18627); assay: flow cytometry on CD8+ cells of SEB-stimulated PBMCs (Donor 1); antibody 2326 ng/ml
[13] = molecular target: human LAG-3 protein (Lymphocyte activation gene-3) on the cell surface (human) (UniProt P18627); assay: flow cytometry on CD4+ cells of SEB-stimulated PBMCs (Donor 1); antibody 1.6 ng/ml
[14] = molecular target: human LAG-3 protein (Lymphocyte activation gene-3) on the cell surface (human) (UniProt P18627); assay: flow cytometry on LAG-3-transfected CHO cells; antibody 1 ng/ml
[15] = molecular target: IMP321 (recombinant soluble human LAG-3Ig fusion protein) (human) (UniProt P18627); assay: FACS, LAG-3Ig-Alexa 488 (1 µg/ml) pre-incubated with antibody 11000 ng/ml, then bound to Raji (MHC class II+) cells
[16] = molecular target: human LAG-3 protein (Lymphocyte activation gene-3) on the cell surface (human) (UniProt P18627); assay: flow cytometry on CD4+ cells of SEB-stimulated PBMCs (Donor 1); antibody 29 ng/ml
[17] = molecular target: IMP321 (recombinant soluble human LAG-3Ig fusion protein) (human) (UniProt P18627); assay: Biacore, LAG-3Ig on the chip and 17B4 antibody in the running buffer
[18] = molecular target: human LAG-3 protein (Lymphocyte activation gene-3) on the cell surface (human) (UniProt P18627); assay: flow cytometry on LAG-3-transfected CHO cells; antibody 100 ng/ml
[19] = molecular target: IMP321 (recombinant soluble human LAG-3Ig fusion protein) (human) (UniProt P18627); assay: FACS, LAG-3Ig-Alexa 488 (1 µg/ml) pre-incubated with antibody 89 ng/ml, then bound to Raji (MHC class II+) cells
[20] = molecular target: human LAG-3 protein (Lymphocyte activation gene-3) on the cell surface (human) (UniProt P18627); assay: flow cytometry on LAG-3-transfected CHO cells; antibody 0 ng/ml (no-antibody background)
[21] = molecular target: human LAG-3 protein (Lymphocyte activation gene-3) on the cell surface (human) (UniProt P18627); assay: flow cytometry on CD8+ cells of SEB-stimulated PBMCs, mean of three donors
[22] = molecular target: IMP321 (recombinant soluble human LAG-3Ig fusion protein) (human) (UniProt P18627); assay: FACS, LAG-3Ig-Alexa 488 (1 µg/ml) pre-incubated with antibody 3300 ng/ml, then bound to Raji (MHC class II+) cells
[23] = molecular target: human LAG-3 protein (Lymphocyte activation gene-3) on the cell surface (human) (UniProt P18627); assay: flow cytometry on LAG-3-transfected CHO cells; antibody 6 ng/ml
[24] = molecular target: IMP321 (recombinant soluble human LAG-3Ig fusion protein) (human) (UniProt P18627); assay: FACS, LAG-3Ig-Alexa 488 (1 µg/ml) pre-incubated with antibody 27 ng/ml, then bound to Raji (MHC class II+) cells
[25] = molecular target: IMP321 (recombinant soluble human LAG-3Ig fusion protein) (human) (UniProt P18627); assay: FACS, LAG-3Ig-Alexa 488 (1 µg/ml) pre-incubated with antibody 990 ng/ml, then bound to Raji (MHC class II+) cells
[26] = molecular target: human LAG-3 protein (Lymphocyte activation gene-3) on the cell surface (human) (UniProt P18627); assay: flow cytometry on LAG-3-expressing CHO cells, mean of four independent experiments
[27] = molecular target: human LAG-3 protein (Lymphocyte activation gene-3) on the cell surface (human) (UniProt P18627); assay: flow cytometry on CD4+ cells of SEB-stimulated PBMCs (Donor 1); antibody 10000 ng/ml

Sequence of human LAG-3 protein (Lymphocyte activation gene-3) on the cell surface (human) (P18627 other isoform, or with tags, fused parts or gaps): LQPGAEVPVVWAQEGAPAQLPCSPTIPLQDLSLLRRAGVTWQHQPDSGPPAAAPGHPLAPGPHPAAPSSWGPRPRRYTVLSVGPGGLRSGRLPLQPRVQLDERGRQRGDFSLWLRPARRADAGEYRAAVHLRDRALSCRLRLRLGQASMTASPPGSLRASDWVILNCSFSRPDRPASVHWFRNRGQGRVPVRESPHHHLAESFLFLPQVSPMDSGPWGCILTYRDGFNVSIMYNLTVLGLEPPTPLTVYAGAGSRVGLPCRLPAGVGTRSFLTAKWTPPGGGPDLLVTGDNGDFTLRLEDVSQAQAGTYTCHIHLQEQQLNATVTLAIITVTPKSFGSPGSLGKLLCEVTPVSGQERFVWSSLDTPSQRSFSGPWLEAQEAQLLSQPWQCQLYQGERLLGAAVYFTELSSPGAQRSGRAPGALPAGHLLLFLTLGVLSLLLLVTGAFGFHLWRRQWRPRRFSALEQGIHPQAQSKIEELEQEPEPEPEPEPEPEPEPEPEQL
Sequence of IMP321 (recombinant soluble human LAG-3Ig fusion protein) (human) (P18627 23-450): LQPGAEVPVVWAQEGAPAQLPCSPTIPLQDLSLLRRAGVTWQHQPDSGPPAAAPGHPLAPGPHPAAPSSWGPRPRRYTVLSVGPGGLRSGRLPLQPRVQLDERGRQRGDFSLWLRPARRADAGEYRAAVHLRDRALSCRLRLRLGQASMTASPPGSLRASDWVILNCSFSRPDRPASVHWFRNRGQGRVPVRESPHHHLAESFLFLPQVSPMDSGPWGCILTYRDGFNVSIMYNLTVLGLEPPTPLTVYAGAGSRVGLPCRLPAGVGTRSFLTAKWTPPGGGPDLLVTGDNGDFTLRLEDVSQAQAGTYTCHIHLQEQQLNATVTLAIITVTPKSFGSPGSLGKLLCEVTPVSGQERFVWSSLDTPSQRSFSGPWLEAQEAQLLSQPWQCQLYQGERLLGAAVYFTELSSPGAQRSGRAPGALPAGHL

## antagonistic anti-LAG-3 mouse monoclonal antibody 17B4
[1]
  MFI: 4090 MFI
[2]
  MFI: 179 MFI
[3]
  MFI: 5140 MFI
[4]
  MFI: 112 MFI
[5]
  MFI: 1750 MFI
[6]
  MFI: 309 MFI
[7]
  MFI: 1940 MFI
[8]
  MFI: 6090 MFI
[9]
  MFI: 606 MFI
[10]
  MFI: 195 MFI
[11]
  Ka: 2.71e+08 M⁻¹
  pKd: 8.43
  koff: 0.000818 s⁻¹
  kon: 222000 M⁻¹ s⁻¹
[12]
  MFI: 4830 MFI
[13]
  MFI: 192 MFI
[14]
  MFI: 247 MFI
[15]
  MFI of sLAG-3Ig-Alexa 488: -11 MFI
[16]
  MFI: 675 MFI
[17]
  pKd: 9.92
  koff: 0.000132 s⁻¹
  kon: 1.09e+06 M⁻¹ s⁻¹
[18]
  MFI: 3170 MFI
[19]
  MFI of sLAG-3Ig-Alexa 488: 214 MFI
[20]
  MFI: 156 MFI
[21]
  pEC50: 9.00
[22]
  MFI of sLAG-3Ig-Alexa 488: 13 MFI
[23]
  MFI: 549 MFI
[24]
  MFI of sLAG-3Ig-Alexa 488: 260 MFI
[25]
  MFI of sLAG-3Ig-Alexa 488: 35 MFI
[26]
  pEC50: 9.15
[27]
  MFI: 1600 MFI
